Results: patent US20120308566A1

Columns and labels:
[1] = biological target: Human IL-17RA full-length expressed on the surface of cells (human) (UniProt Q96F46); test: cell-based or functional assay
chimera L = test: Bio-Plex titration on His-captured chimera; bold cell = binding criterion not met

Binder | % inhibition of IL-6 production, IL-17A/HFF bioassay, supernatant 19 (incl. AMH23), 1:4 dilution [1] [%] | % inhibition of IL-6 production, IL-17A/HFF bioassay, supernatant 19 (incl. AMH23), 1:32 [1] [%] | % inhibition of IL-6 production, repeat IL-17A/HFF bioassay, supernatant 19 (incl. AMH23), 1:4 [1] [%] | % inhibition of IL-6 production, repeat IL-17A/HFF bioassay, supernatant 19 (incl. AMH23), 1:32 [1] [%] | % inhibition of IL-6 production, repeat IL-17A/HFF bioassay, supernatant 19 (incl. AMH23), 1:128 [1] [%] | % inhibition of IL-6 production, repeat IL-17A/HFF bioassay, supernatant 19 (incl. AMH23), 1:512 [1] [%] | EC50 as fitted, in a bold cell (binding criterion not met) (chimera L) [pM]
AMH23/AML23 (antibody, part only; not given: light variable domain, version unclear, V domains shown, part only) VH: QVQLQESGPGLVKPSETLSLTCTVSGGSISSYYWSWIRQPAGKRLEWIGRIYPSGRTNYNPSLKSRVTMSVDTSKNQFSLKLSSVTAADTAVYYCAREAYELQLGLYYYYGMDVWGQGTPVTVSS | 79 | 72 | 86 | 76 | 67 | 50 | 
AMH26/AML26 (antibody, IgG2, V domains shown) VH: QVQLVESGGGLVKPGGSLRLSCAASGFTFSDYYMSWIRQAPGKGLEWVSYISSSGSTIYYADSVKGRFTISRDNAKNSLYLQMNSLRAEDTAVYYCARDRTYYFGSGSYEGMDVWGQGTTVTVSS VL: EILMTQSPATLSVSPGERATLSCRASQSVYSNLAWYQQKPGQAPRLLISGASTRATGIPARFSGSGSGTEFTLTISSLQSEDFAVYYCQQYYNWPWTFGQGTKVEIK |  |  |  |  |  |  | 6
